{"source": "patent US20260240884A1", "about": "“MIXTURE OF HUMAN MILK OLIGOSACCHARIDES” (N.V. Nutricia, priority 2023, published 2026)", "molecules": {"B1": {"name": "Lactoferrin: lactoferrin, control test compound (protein, UniProt P02788 20-710, looked up)", "Lactotransferrin": "GRRRSVQWCAVSQPEATKCFQWQRNMRKVRGPPVSCIKRDSPIQCIQAIAENRADAVTLDGGFIYEAGLAPYKLRPVAAEVYGTERQPRTHYYAVAVVKKGGSFQLNELQGLKSCHTGLRRTAGWNVPIGTLRPFLNWTGPPEPIEAAVARFFSASCVPGADKGQFPNLCRLCAGTGENKCAFSSQEPYFSYSGAFKCLRDGAGDVAFIRESTVFEDLSDEAERDEYELLCPDNTRKPVDKFKDCHLARVPSHAVVARSVNGKEDAIWNLLRQAQEKFGKDKSPKFQLFGSPSGQKDLLFKDSAIGFSRVPPRIDSGLYLGSGYFTAIQNLRKSEEEVAARRARVVWCAVGEQELRKCNQWSGLSEGSVTCSSASTTEDCIALVLKGEADAMSLDGGYVYTAGKCGLVPVLAENYKSQQSSDPDPNCVDRPVEGYLAVAVVRRSDTSLTWNSVKGKKSCHTAVDRTAGWNIPMGLLFNQTGSCKFDEYFSQSCAPGSDPRSNLCALCIGDEQGENKCVPNSNERYYGYTGAFRCLAENAGDVAFVKDVTVLQNTDGNNNEAWAKDLKLADFALLCLDGKRKPVTEARSCHLAMAPNHAVVSRMDKVERLKQVLLHQQAKFGRNGSDCPDKFCLFQSETKNLLFNDNTECLARLHGKTTYEKYLGPQYVAGITNLKKCSTSPLLEACEFLRK"}}, "tested_on": "IL-8 secretion of HT-29 cells", "assay": "IL-8 secretion and viability of HT-29 cells pre-incubated with test compounds and challenged with Lyovec-complexed Poly I:C", "assay_type": "cell-based, Human", "data": [{"molecule": "B1", "values": [{"measurement": "Mean IL-8 secretion", "setting": "0.1% + Poly I:C, Poly I:C alone 21799.28", "result": 9201.69, "unit": "pg/mL"}, {"measurement": "Mean IL-8 secretion", "setting": "0.1%, no Poly I:C, Medium 359.54", "result": 343.19, "unit": "pg/mL"}]}]}
